Paper PMC9482650, “Quantitative fragmentomics allow affinity mapping of interactomes” (Nature Communications, 2022)

Tests used:
Experiment in all cases: holdup assay
Set-up in all cases: key: below the threshold = too weak to quantify, mostly under pKd 3.1 to 4
APBA1_2, Q02410 = molecular target: T1, APBA1_2, Q02410
T1 sequence (Q02410 742-832, limits assumed, looked up): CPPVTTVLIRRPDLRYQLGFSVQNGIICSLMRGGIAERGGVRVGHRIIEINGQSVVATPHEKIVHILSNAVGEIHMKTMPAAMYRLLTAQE

APBA3_1, O96018 = molecular target: T2, APBA3_1, O96018
T2 sequence (O96018 389-490, limits assumed, looked up): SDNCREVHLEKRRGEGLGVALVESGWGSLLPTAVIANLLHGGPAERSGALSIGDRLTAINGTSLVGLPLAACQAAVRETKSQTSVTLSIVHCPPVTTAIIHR

CASK, O14936 = molecular target: CASK, O14936
DFNB31_1, Q9P202 = molecular target: T3, DFNB31_1, Q9P202
T3 sequence (Q9P202 135-233, limits assumed, looked up): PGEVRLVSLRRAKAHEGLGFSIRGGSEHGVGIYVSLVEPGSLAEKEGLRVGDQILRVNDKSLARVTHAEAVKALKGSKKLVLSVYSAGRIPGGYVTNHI

DLG1_2, Q12959 = molecular target: DLG1_2, Q12959
DLG3_2, Q92796 = molecular target: T4, DLG3_2, Q92796
T4 sequence (Q92796 221-321, limits assumed, looked up): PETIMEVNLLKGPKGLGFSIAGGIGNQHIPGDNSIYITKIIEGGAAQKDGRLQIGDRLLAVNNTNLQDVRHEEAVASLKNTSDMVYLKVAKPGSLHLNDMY

FRMPD2_2, Q68DX3 = molecular target: FRMPD2_2, Q68DX3
FRMPD2_3, Q68DX3 = molecular target: FRMPD2_3, Q68DX3
GIPC2, Q8TF65 = molecular target: GIPC2, Q8TF65
GRIP1_3, Q9Y3R0 = molecular target: T5, GRIP1_3, Q9Y3R0
T5 sequence (Q9Y3R0 247-346, limits assumed, looked up): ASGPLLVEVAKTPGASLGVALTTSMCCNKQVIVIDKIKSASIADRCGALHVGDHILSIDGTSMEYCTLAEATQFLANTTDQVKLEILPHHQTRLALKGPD

GRIP1_4, Q9Y3R0 = molecular target: T6, GRIP1_4, Q9Y3R0
T6 sequence (Q9Y3R0 467-571, limits assumed, looked up): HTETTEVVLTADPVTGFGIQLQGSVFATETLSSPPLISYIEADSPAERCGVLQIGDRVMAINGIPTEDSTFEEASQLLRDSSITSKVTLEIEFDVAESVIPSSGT

Inadl_4, Q8NI35 = molecular target: Inadl_4, Q8NI35
Inadl_6, Q8NI35 = molecular target: Inadl_6, Q8NI35
LAP2, Q96RT1 = molecular target: LAP2, Q96RT1
MAGI2_4, Q86UL8 = molecular target: MAGI2_4, Q86UL8
MPDZ_12, O75970 = molecular target: T7, MPDZ_12, O75970
T7 sequence (O75970 1857-1958, limits assumed, looked up): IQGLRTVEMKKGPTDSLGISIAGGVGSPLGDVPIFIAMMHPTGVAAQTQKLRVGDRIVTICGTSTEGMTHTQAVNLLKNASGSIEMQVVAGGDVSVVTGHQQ

MPP6, Q9NZW5 = molecular target: T8, MPP6, Q9NZW5
T8 sequence (Q9NZW5 125-219, limits assumed, looked up): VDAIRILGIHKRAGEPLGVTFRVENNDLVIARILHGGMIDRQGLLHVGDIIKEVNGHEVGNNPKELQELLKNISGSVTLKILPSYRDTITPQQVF

NHERF2_2, Q15599 = molecular target: NHERF2_2, Q15599
PARD3B_1, Q8TEW8 = molecular target: T9, PARD3B_1, Q8TEW8
T9 sequence (Q8TEW8 196-299, limits assumed, looked up): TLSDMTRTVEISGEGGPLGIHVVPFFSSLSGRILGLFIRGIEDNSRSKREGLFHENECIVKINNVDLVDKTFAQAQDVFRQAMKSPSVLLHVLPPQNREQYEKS

PCLO, Q9Y6V0 = molecular target: T10, PCLO, Q9Y6V0
T10 sequence (Q9Y6V0 4491-4600, limits assumed, looked up): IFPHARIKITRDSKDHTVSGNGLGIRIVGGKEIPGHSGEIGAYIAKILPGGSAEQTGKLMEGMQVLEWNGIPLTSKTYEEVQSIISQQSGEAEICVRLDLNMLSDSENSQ

PDZD7_3, Q9H5P4 = molecular target: T11, PDZD7_3, Q9H5P4
T11 sequence (Q9H5P4 857-944, limits assumed, looked up): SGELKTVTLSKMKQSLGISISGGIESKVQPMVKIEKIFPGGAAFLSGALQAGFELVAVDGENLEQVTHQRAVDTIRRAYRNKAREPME

PTPN13_1, Q12923 = molecular target: T12, PTPN13_1, Q12923
T12 sequence (Q12923 1088-1188, limits assumed, looked up): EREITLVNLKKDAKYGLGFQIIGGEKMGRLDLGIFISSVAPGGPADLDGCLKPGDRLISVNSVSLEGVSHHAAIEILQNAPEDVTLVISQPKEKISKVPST

SHANK1, Q9Y566 = molecular target: T13, SHANK1, Q9Y566
T13 sequence (Q9Y566 658-767, limits assumed, looked up): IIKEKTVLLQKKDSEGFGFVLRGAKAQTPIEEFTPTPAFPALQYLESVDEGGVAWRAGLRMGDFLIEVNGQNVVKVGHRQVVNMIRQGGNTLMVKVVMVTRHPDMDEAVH

TJP1_2, Q07157 = molecular target: TJP1_2, Q07157
[1] = plain residues with an end cap or a label only (N-terminal biotin on a linker: gsgsgs; C-terminal amide)
[2] = plain residues with an end cap or a label only (N-terminal biotin on a linker: ado-ado)
[3] = plain residues with an end cap or a label only (N-terminal biotin on a linker: none)
[4] = plain residues with an end cap or a label only (N-terminal biotin on a linker: ttds)

Sequence of NHERF2_2, Q15599 (Q15599 142-238): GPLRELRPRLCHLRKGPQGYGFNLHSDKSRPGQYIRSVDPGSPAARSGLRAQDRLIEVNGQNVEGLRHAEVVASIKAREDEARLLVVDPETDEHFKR
Sequence of LAP2, Q96RT1 (Q96RT1 other isoform, or with tags, fused parts or gaps): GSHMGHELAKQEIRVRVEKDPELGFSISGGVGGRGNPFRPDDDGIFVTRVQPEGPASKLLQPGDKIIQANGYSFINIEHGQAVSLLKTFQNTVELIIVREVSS
Sequence of GIPC2, Q8TF65 (Q8TF65 112-203): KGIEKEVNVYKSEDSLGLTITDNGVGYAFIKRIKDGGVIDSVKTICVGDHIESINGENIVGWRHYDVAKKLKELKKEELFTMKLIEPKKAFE
Sequence of FRMPD2_3, Q68DX3 (Q68DX3 1073-1166): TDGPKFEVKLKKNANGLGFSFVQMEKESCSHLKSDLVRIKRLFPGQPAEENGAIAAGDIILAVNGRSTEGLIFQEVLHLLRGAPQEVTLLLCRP
Sequence of Inadl_6, Q8NI35 (Q8NI35 1058-1167): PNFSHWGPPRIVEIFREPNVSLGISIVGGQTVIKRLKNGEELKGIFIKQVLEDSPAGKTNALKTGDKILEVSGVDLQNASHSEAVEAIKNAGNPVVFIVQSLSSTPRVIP
Sequence of TJP1_2, Q07157 (Q07157 181-274): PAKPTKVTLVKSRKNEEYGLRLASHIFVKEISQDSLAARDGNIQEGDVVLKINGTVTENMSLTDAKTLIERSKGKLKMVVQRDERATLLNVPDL
Sequence of DLG1_2, Q12959 (Q12959 314-412): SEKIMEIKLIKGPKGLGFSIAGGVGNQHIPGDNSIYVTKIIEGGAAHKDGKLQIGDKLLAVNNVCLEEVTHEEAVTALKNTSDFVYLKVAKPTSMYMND
Sequence of Inadl_4, Q8NI35 (Q8NI35 547-651): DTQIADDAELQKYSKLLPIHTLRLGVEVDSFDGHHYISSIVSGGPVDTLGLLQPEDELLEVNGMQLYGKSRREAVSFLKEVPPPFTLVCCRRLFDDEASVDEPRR
Sequence of FRMPD2_2, Q68DX3 (Q68DX3 944-1038): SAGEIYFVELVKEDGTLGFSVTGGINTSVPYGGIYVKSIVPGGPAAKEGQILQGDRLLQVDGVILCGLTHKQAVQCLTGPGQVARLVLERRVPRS
Sequence of MAGI2_4, Q86UL8 (Q86UL8 772-865): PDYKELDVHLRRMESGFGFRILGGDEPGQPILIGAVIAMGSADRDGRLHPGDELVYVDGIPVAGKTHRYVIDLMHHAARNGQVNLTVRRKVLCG
Sequence of CASK, O14936 (O14936 487-570): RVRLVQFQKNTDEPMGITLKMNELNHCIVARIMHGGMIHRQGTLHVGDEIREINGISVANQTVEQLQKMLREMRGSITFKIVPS

For ELIQDTSTSFSTTREW [ARAP3_int, Q8WWN8], the pKd (APBA1_2, Q02410; [1]) was “below the threshold”, the pKd (APBA3_1, O96018; [1]) was “below the threshold” and the pKd (CASK, O14936; [1]) was “below the threshold”. For the same binder, the pKd (DFNB31_1, Q9P202; [1]) was “below the threshold”, the pKd (DLG1_2, Q12959; [1]) was “below the threshold” and the pKd (DLG3_2, Q92796; [1]) was 4.16. For the same binder, the pKd (FRMPD2_2, Q68DX3; [1]) was “below the threshold”, the pKd (FRMPD2_3, Q68DX3; [1]) was “below the threshold” and the pKd (GIPC2, Q8TF65; [1]) was “below the threshold”. The pKd (GRIP1_3, Q9Y3R0; [1]) was “below the threshold”, the pKd (GRIP1_4, Q9Y3R0; [1]) was “below the threshold” and the pKd (Inadl_4, Q8NI35; [1]) was “below the threshold”. For the same binder, the pKd (Inadl_6, Q8NI35; [1]) was “below the threshold”, the pKd (LAP2, Q96RT1; [1]) was “below the threshold” and the pKd (MAGI2_4, Q86UL8; [1]) was “below the threshold”. For the same binder, the pKd (MPDZ_12, O75970; [1]) was “below the threshold”, the pKd (MPP6, Q9NZW5; [1]) was 3.69 and the pKd (NHERF2_2, Q15599; [1]) was “below the threshold”. For the same binder, the pKd (PARD3B_1, Q8TEW8; [1]) was “below the threshold”, the pKd (PCLO, Q9Y6V0; [1]) was “below the threshold” and the pKd (PDZD7_3, Q9H5P4; [1]) was “below the threshold”. For the same binder, the pKd (PTPN13_1, Q12923; [1]) was “below the threshold”, the pKd (SHANK1, Q9Y566; [1]) was 4.4 and the pKd (TJP1_2, Q07157; [1]) was “below the threshold”.

In the case of LHLHGTGIQV [EPHA7, Q15375], the pKd (APBA1_2, Q02410; [2]) is reported as 4.22, the pKd (APBA3_1, O96018; [2]) is reported as “below the threshold” and the pKd (CASK, O14936; [2]) is reported as “below the threshold”. The pKd (DFNB31_1, Q9P202; [2]) was 3.53, the pKd (DLG1_2, Q12959; [2]) was 3.6 and the pKd (DLG3_2, Q92796; [2]) was “below the threshold”. For the same binder, the pKd (FRMPD2_2, Q68DX3; [2]) was “below the threshold”, the pKd (FRMPD2_3, Q68DX3; [2]) was “below the threshold” and the pKd (GIPC2, Q8TF65; [2]) was “below the threshold”. The pKd (GRIP1_3, Q9Y3R0; [2]) was “below the threshold”, the pKd (GRIP1_4, Q9Y3R0; [2]) was “below the threshold” and the pKd (Inadl_4, Q8NI35; [2]) was “below the threshold”. The pKd (Inadl_6, Q8NI35; [2]) was “below the threshold”, the pKd (LAP2, Q96RT1; [2]) was 3.63 and the pKd (MAGI2_4, Q86UL8; [2]) was 3.83. For the same binder, the pKd (MPDZ_12, O75970; [2]) was 3.55, the pKd (MPP6, Q9NZW5; [2]) was 3.88 and the pKd (NHERF2_2, Q15599; [2]) was “below the threshold”. For the same binder, the pKd (PARD3B_1, Q8TEW8; [2]) was 3.72, the pKd (PCLO, Q9Y6V0; [2]) was “below the threshold” and the pKd (PDZD7_3, Q9H5P4; [2]) was “below the threshold”. For the same binder, the pKd (PTPN13_1, Q12923; [2]) was “below the threshold”, the pKd (SHANK1, Q9Y566; [2]) was “below the threshold” and the pKd (TJP1_2, Q07157; [2]) was 4.43.

DSKPPLPPDEWV [MERS-E, K9N5R3] was tested, and the pKd (APBA1_2, Q02410; [3]) was 4.59, the pKd (APBA3_1, O96018; [3]) was 3.65 and the pKd (CASK, O14936; [3]) was 3.48. The pKd (DFNB31_1, Q9P202; [3]) was 3.61, the pKd (DLG1_2, Q12959; [3]) was 3.57 and the pKd (DLG3_2, Q92796; [3]) was 3.96. The pKd (FRMPD2_2, Q68DX3; [3]) was “below the threshold”, the pKd (FRMPD2_3, Q68DX3; [3]) was 3.53 and the pKd (GIPC2, Q8TF65; [3]) was “below the threshold”. For the same binder, the pKd (GRIP1_3, Q9Y3R0; [3]) was “below the threshold”, the pKd (GRIP1_4, Q9Y3R0; [3]) was “below the threshold” and the pKd (Inadl_4, Q8NI35; [3]) was “below the threshold”. The pKd (Inadl_6, Q8NI35; [3]) was 3.81, the pKd (LAP2, Q96RT1; [3]) was 5.24 and the pKd (MAGI2_4, Q86UL8; [3]) was 3.73. The pKd (MPDZ_12, O75970; [3]) was “below the threshold”, the pKd (MPP6, Q9NZW5; [3]) was “below the threshold” and the pKd (NHERF2_2, Q15599; [3]) was “below the threshold”. For the same binder, the pKd (PARD3B_1, Q8TEW8; [3]) was 3.5, the pKd (PCLO, Q9Y6V0; [3]) was “below the threshold” and the pKd (PDZD7_3, Q9H5P4; [3]) was “below the threshold”. The pKd (PTPN13_1, Q12923; [3]) was “below the threshold”, the pKd (SHANK1, Q9Y566; [3]) was “below the threshold” and the pKd (TJP1_2, Q07157; [3]) was 4.16.

With HRTCYLVTQL [ASIC3, Q9UHC3] the pKd (APBA1_2, Q02410; [4]) was 3.78, the pKd (APBA3_1, O96018; [4]) was “below the threshold” and the pKd (CASK, O14936; [4]) was “below the threshold”. It also gave a pKd (DFNB31_1, Q9P202; [4]) of 3.67, a pKd (DLG1_2, Q12959; [4]) of 4.12 and a pKd (DLG3_2, Q92796; [4]) of 3.97. The pKd (FRMPD2_2, Q68DX3; [4]) was 3.76, the pKd (FRMPD2_3, Q68DX3; [4]) was “below the threshold” and the pKd (GIPC2, Q8TF65; [4]) was “below the threshold”. The pKd (GRIP1_3, Q9Y3R0; [4]) was “below the threshold”, the pKd (GRIP1_4, Q9Y3R0; [4]) was “below the threshold” and the pKd (Inadl_4, Q8NI35; [4]) was “below the threshold”. The pKd (Inadl_6, Q8NI35; [4]) was 4.23, the pKd (LAP2, Q96RT1; [4]) was 4.02 and the pKd (MAGI2_4, Q86UL8; [4]) was 3.75. For the same binder, the pKd (MPDZ_12, O75970; [4]) was 3.34, the pKd (MPP6, Q9NZW5; [4]) was 3.45 and the pKd (NHERF2_2, Q15599; [4]) was 4.5. For the same binder, the pKd (PARD3B_1, Q8TEW8; [4]) was 3.95, the pKd (PCLO, Q9Y6V0; [4]) was “below the threshold” and the pKd (PDZD7_3, Q9H5P4; [4]) was 5.47. The pKd (PTPN13_1, Q12923; [4]) was 3.36, the pKd (SHANK1, Q9Y566; [4]) was 4.91 and the pKd (TJP1_2, Q07157; [4]) was “below the threshold”.
